Results on 125 sequences are retold here after the supplement of paper PMC9112550, “Optimization of the antimicrobial peptide Bac7 by deep mutational scanning” (BMC Biology, 2022).

The data set has as its system Escherichia coli TOP10. As to the kind of experiment: shrunken log2 fold change of peptide-encoding DNA abundance (4.5 h post-induction vs induction); higher = less antimicrobial activity (less host growth inhibition). Conditions: time post-induction: 4.5 h; library: site-saturation at positions 5, 18, 19, 20.
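Further: peptides expressed intracellularly from a pBAD plasmid library in pooled LB shake-flask culture, induced with 0.3% L-arabinose, DNA abundance read by NGS, three biological replicates, DESeq2 with apeglm shrinkage.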

Turning to RRIRPRPPRLPRPRPRPVRIPRP, the “shrunken log2 fold change” value stood at 0.0103. For RRIRTRPPRLPRPRPRPEFFPRP, the “shrunken log2 fold change” value was -0.0853. The value for RRIRCRPPRLPRPRPRPRPHPRP was 0.211; that for RRIRARPPRLPRPRPRPVNQPRP was -0.0386.

In the case of RRIRARPPRLPRPRPRPFWPPRP, the “shrunken log2 fold change” value came to 0.412. As for RRIRIRPPRLPRPRPRPMRFPRP, the “shrunken log2 fold change” value is -0.0444. As to RRIRPRPPRLPRPRPRPNMQPRP, the “shrunken log2 fold change” value was -0.313.

As to RRIRHRPPRLPRPRPRPRVHPRP, the “shrunken log2 fold change” value amounted to 0.0785. Take RRIRNRPPRLPRPRPRPVRGPRP: the “shrunken log2 fold change” value was determined as 0.649. For RRIRERPPRLPRPRPRPFVQPRP the value was -0.386; for RRIRNRPPRLPRPRPRPWLPPRP, -0.0828.

In the case of RRIRLRPPRLPRPRPRPVAQPRP, the “shrunken log2 fold change” value stood at 0.391. For RRIRVRPPRLPRPRPRPKHTPRP, the “shrunken log2 fold change” value is -0.177. As to RRIRYRPPRLPRPRPRPAFYPRP, the “shrunken log2 fold change” value was -0.513. Regarding RRIRWRPPRLPRPRPRPEFYPRP, the “shrunken log2 fold change” value is -0.129. Regarding RRIRVRPPRLPRPRPRPARFPRP, the “shrunken log2 fold change” value was 0.16. For the sequence RRIRGRPPRLPRPRPRPKMRPRP, the “shrunken log2 fold change” value came out at 1.33. RRIRVRPPRLPRPRPRPSMFPRP: the “shrunken log2 fold change” value is -0.245. For the sequence RRIRERPPRLPRPRPRPCTCPRP, the “shrunken log2 fold change” value is -0.00884. Take RRIRWRPPRLPRPRPRPEYFPRP: the “shrunken log2 fold change” value is -0.0445.

As for RRIRRRPPRLPRPRPRPQHMPRP, the “shrunken log2 fold change” value was -0.296. In the case of RRIRSRPPRLPRPRPRPSWCPRP, the “shrunken log2 fold change” value was -0.132.

RRIRERPPRLPRPRPRPDTHPRP: the “shrunken log2 fold change” value is -0.532. The value for RRIRHRPPRLPRPRPRPPGNPRP was 0.133; that for RRIRDRPPRLPRPRPRPPQDPRP was 0.811; that for RRIRARPPRLPRPRPRPKGDPRP was -0.07. With RRIRFRPPRLPRPRPRPLQRPRP, the “shrunken log2 fold change” value is 0.071.

With RRIRDRPPRLPRPRPRPHNPPRP, the “shrunken log2 fold change” value was -0.231. Take RRIRTRPPRLPRPRPRPQGHPRP: the “shrunken log2 fold change” value was -0.122.

RRIRQRPPRLPRPRPRPPVDPRP: the “shrunken log2 fold change” value was -0.19. For the sequence RRIRHRPPRLPRPRPRPTPSPRP, the “shrunken log2 fold change” value worked out at 0.276. As for RRIRVRPPRLPRPRPRPHHCPRP, the “shrunken log2 fold change” value was -0.74.

As to RRIRVRPPRLPRPRPRPALWPRP, the “shrunken log2 fold change” value was 0.57.

As for RRIRERPPRLPRPRPRPDQAPRP, the “shrunken log2 fold change” value is -0.00195.

Turning to RRIRARPPRLPRPRPRPFVMPRP, the “shrunken log2 fold change” value is -0.181.

In the case of RRIRNRPPRLPRPRPRPYPSPRP, the “shrunken log2 fold change” value stood at 0.0309. As for RRIRVRPPRLPRPRPRPAFFPRP, the “shrunken log2 fold change” value amounted to 0.084. Take RRIRPRPPRLPRPRPRPYYTPRP: the “shrunken log2 fold change” value was -0.379.

As for RRIRVRPPRLPRPRPRPGCLPRP, the “shrunken log2 fold change” value was determined as 0.236. For RRIRIRPPRLPRPRPRPDEQPRP the value was 0.0601; for RRIRCRPPRLPRPRPRPKWYPRP, -0.239; for RRIRIRPPRLPRPRPRPFLTPRP, -0.736. As for RRIRGRPPRLPRPRPRPIASPRP, the “shrunken log2 fold change” value came to 0.524. Consider RRIRWRPPRLPRPRPRPPIFPRP, for which the “shrunken log2 fold change” value was 0.488.

For RRIRERPPRLPRPRPRPFWNPRP, the “shrunken log2 fold change” value is -0.51. For the sequence RRIRERPPRLPRPRPRPQFYPRP, the “shrunken log2 fold change” value is -0.452. As for RRIRKRPPRLPRPRPRPNVRPRP, the “shrunken log2 fold change” value is -0.0184. The value for RRIRLRPPRLPRPRPRPRVKPRP was -0.0432; that for RRIRWRPPRLPRPRPRPPCDPRP was 0.255; that for RRIRIRPPRLPRPRPRPYSAPRP was -0.221.

In the case of RRIRGRPPRLPRPRPRPILHPRP, the “shrunken log2 fold change” value turned out to be 0.0775. The value for RRIRRRPPRLPRPRPRPNWWPRP was 1.05. For RRIRMRPPRLPRPRPRPSSNPRP the value was -0.142. With RRIRARPPRLPRPRPRPDPWPRP, the “shrunken log2 fold change” value came to 0.308.

As for RRIRMRPPRLPRPRPRPPIVPRP, the “shrunken log2 fold change” value was -0.112.

Take RRIRFRPPRLPRPRPRPQTSPRP: the “shrunken log2 fold change” value is -0.449.

For RRIRIRPPRLPRPRPRPYEEPRP, the “shrunken log2 fold change” value is -0.828. For RRIRIRPPRLPRPRPRPGETPRP the value was 0.0122; for RRIRVRPPRLPRPRPRPGLIPRP, -0.359. RRIRCRPPRLPRPRPRPYKWPRP: the “shrunken log2 fold change” value is -0.636. Turning to RRIRSRPPRLPRPRPRPSWLPRP, the “shrunken log2 fold change” value is -0.101. For the sequence RRIRLRPPRLPRPRPRPPYMPRP, the “shrunken log2 fold change” value is -0.205. The value for RRIRMRPPRLPRPRPRPQWCPRP was -0.0474; that for RRIRTRPPRLPRPRPRPRYMPRP was -0.62.

Regarding RRIRRRPPRLPRPRPRPNWNPRP, the “shrunken log2 fold change” value was -0.115.

Regarding RRIRRRPPRLPRPRPRPKWYPRP, the “shrunken log2 fold change” value came to 0.0824.

On to RRIRHRPPRLPRPRPRPFYEPRP, for which the “shrunken log2 fold change” value is -0.108. For RRIRTRPPRLPRPRPRPDFWPRP the value was 0.413; for RRIRKRPPRLPRPRPRPQYMPRP, 0.0201; for RRIRKRPPRLPRPRPRPRKSPRP, 0.727. On to RRIRDRPPRLPRPRPRPRYVPRP, for which the “shrunken log2 fold change” value is -0.0272. On to RRIRTRPPRLPRPRPRPITRPRP, for which the “shrunken log2 fold change” value is -0.0822.

As to RRIRWRPPRLPRPRPRPNNGPRP, the “shrunken log2 fold change” value is -0.165. For RRIRFRPPRLPRPRPRPSFEPRP the value was -0.532; for RRIRDRPPRLPRPRPRPYPVPRP, 0.00705. As to RRIRMRPPRLPRPRPRPYLRPRP, the “shrunken log2 fold change” value was 0.0522. In the case of RRIRARPPRLPRPRPRPKLQPRP, the “shrunken log2 fold change” value worked out at 0.64. The value for RRIRPRPPRLPRPRPRPKVPPRP was 0.303. Consider RRIRYRPPRLPRPRPRPYADPRP, for which the “shrunken log2 fold change” value is -0.136. With RRIRCRPPRLPRPRPRPIGLPRP, the “shrunken log2 fold change” value came out at 0.00863. RRIRRRPPRLPRPRPRPVNTPRP: the “shrunken log2 fold change” value is -0.0567. For the sequence RRIRARPPRLPRPRPRPSWMPRP, the “shrunken log2 fold change” value was -0.131. Turning to RRIRHRPPRLPRPRPRPGFQPRP, the “shrunken log2 fold change” value is -0.0167.

In the case of RRIRHRPPRLPRPRPRPYRPPRP, the “shrunken log2 fold change” value is -0.115. For the sequence RRIRLRPPRLPRPRPRPCDRPRP, the “shrunken log2 fold change” value is -0.114. Take RRIRSRPPRLPRPRPRPRAWPRP: the “shrunken log2 fold change” value is 0.0718. On to RRIRLRPPRLPRPRPRPIKSPRP, for which the “shrunken log2 fold change” value was -0.202. For RRIRGRPPRLPRPRPRPGFRPRP the value was 0.399; for RRIRNRPPRLPRPRPRPGCHPRP, -0.318.

RRIRIRPPRLPRPRPRPHRGPRP: the “shrunken log2 fold change” value is -0.00841. Take RRIRTRPPRLPRPRPRPRELPRP: the “shrunken log2 fold change” value worked out at 0.267. Take RRIRPRPPRLPRPRPRPEQMPRP: the “shrunken log2 fold change” value turned out to be 0.0974. With RRIRQRPPRLPRPRPRPTENPRP, the “shrunken log2 fold change” value turned out to be 0.0631. Consider RRIRARPPRLPRPRPRPMDLPRP, for which the “shrunken log2 fold change” value was -0.292. For the sequence RRIRNRPPRLPRPRPRPEYHPRP, the “shrunken log2 fold change” value was determined as 0.0524. The value for RRIRPRPPRLPRPRPRPVYDPRP was -0.711; that for RRIRNRPPRLPRPRPRPGIQPRP was 0.00115; that for RRIRRRPPRLPRPRPRPHNEPRP was -0.0783. Consider RRIRCRPPRLPRPRPRPSDIPRP, for which the “shrunken log2 fold change” value is -0.814. On to RRIRERPPRLPRPRPRPSTKPRP, for which the “shrunken log2 fold change” value is -0.232.

Consider RRIRERPPRLPRPRPRPKRTPRP, for which the “shrunken log2 fold change” value is 0.108. RRIRNRPPRLPRPRPRPADWPRP: the “shrunken log2 fold change” value came out at 0.044. RRIRARPPRLPRPRPRPCVLPRP: the “shrunken log2 fold change” value was -0.0267. Take RRIRRRPPRLPRPRPRPINAPRP: the “shrunken log2 fold change” value was found to be 0.185. With RRIRERPPRLPRPRPRPMQEPRP, the “shrunken log2 fold change” value came out at 0.216.

For RRIRMRPPRLPRPRPRPTQRPRP, the “shrunken log2 fold change” value was found to be 0.968. As to RRIRFRPPRLPRPRPRPKDTPRP, the “shrunken log2 fold change” value is 0.0365. For the sequence RRIRTRPPRLPRPRPRPHCTPRP, the “shrunken log2 fold change” value was -0.298. In the case of RRIRHRPPRLPRPRPRPMLAPRP, the “shrunken log2 fold change” value is -0.144. Take RRIRTRPPRLPRPRPRPILCPRP: the “shrunken log2 fold change” value is -0.0876. On to RRIRGRPPRLPRPRPRPYGPPRP, for which the “shrunken log2 fold change” value came to 0.0138. Turning to RRIRVRPPRLPRPRPRPTFTPRP, the “shrunken log2 fold change” value is -0.073. RRIRRRPPRLPRPRPRPSQSPRP: the “shrunken log2 fold change” value amounted to 0.121.

Take RRIRSRPPRLPRPRPRPDGYPRP: the “shrunken log2 fold change” value was -0.164. Regarding RRIRVRPPRLPRPRPRPVDIPRP, the “shrunken log2 fold change” value is 0.0216. On to RRIRSRPPRLPRPRPRPPFDPRP, for which the “shrunken log2 fold change” value was 0.244. Take RRIRKRPPRLPRPRPRPETNPRP: the “shrunken log2 fold change” value is 2.35. For RRIRDRPPRLPRPRPRPSVAPRP, the “shrunken log2 fold change” value was 0.233. As for RRIRARPPRLPRPRPRPHKNPRP, the “shrunken log2 fold change” value was found to be 0.0543. With RRIRLRPPRLPRPRPRPVPVPRP, the “shrunken log2 fold change” value is -0.0404. With RRIRVRPPRLPRPRPRPSWTPRP, the “shrunken log2 fold change” value was -0.0613. Regarding RRIRTRPPRLPRPRPRPKNEPRP, the “shrunken log2 fold change” value was 0.715. In the case of RRIRVRPPRLPRPRPRPAINPRP, the “shrunken log2 fold change” value is -0.259. On to RRIRARPPRLPRPRPRPWKAPRP, for which the “shrunken log2 fold change” value was -0.0198. Take RRIRERPPRLPRPRPRPGFSPRP: the “shrunken log2 fold change” value is -0.196.
